This is an account of results in publication PMC6468871.

This assay addresses T1, RAD51 WT protein phosphorylated in vitro by c-MET kinase (human).
T1 chain: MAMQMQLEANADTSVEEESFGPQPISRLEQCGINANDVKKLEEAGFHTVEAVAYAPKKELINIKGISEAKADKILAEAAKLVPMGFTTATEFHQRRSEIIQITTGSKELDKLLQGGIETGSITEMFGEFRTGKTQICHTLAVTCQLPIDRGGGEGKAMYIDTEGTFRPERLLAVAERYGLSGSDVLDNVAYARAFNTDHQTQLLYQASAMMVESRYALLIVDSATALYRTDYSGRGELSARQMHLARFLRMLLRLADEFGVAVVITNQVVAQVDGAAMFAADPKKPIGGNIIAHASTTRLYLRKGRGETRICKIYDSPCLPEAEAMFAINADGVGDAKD
As to the kind of experiment: cross-linking; RAD51 10 uM with ATP 2 mM, with or without kinase-active c-MET (0.1 uM) and PHA665752 (1 uM); 20 mM BS3, room temperature, 30 min, stopped with Tris 1 M pH 8.0; SDS-PAGE 10% and western blot with anti-RAD51. The conditions noted are these: remark: other sources report otherwise. In general terms: Immunoblotting shows a protein as a band on a membrane.

B1: RAD51 WT protein phosphorylated in vitro by c-MET kinase (natural protein)
chain: MAMQMQLEANADTSVEEESFGPQPISRLEQCGINANDVKKLEEAGFHTVEAVAYAPKKELINIKGISEAKADKILAEAAKLVPMGFTTATEFHQRRSEIIQITTGSKELDKLLQGGIETGSITEMFGEFRTGKTQICHTLAVTCQLPIDRGGGEGKAMYIDTEGTFRPERLLAVAERYGLSGSDVLDNVAYARAFNTDHQTQLLYQASAMMVESRYALLIVDSATALYRTDYSGRGELSARQMHLARFLRMLLRLADEFGVAVVITNQVVAQVDGAAMFAADPKKPIGGNIIAHASTTRLYLRKGRGETRICKIYDSPCLPEAEAMFAINADGVGDAKD
modifications: here or on the partner: phosphotyrosine at Y159, Y191, Y205 and Y315 (sites the paper concludes for c-MET; extent at each site not stated); phosphotyrosine at Y159, Y191, Y205 and Y315 (sites the paper concludes for c-MET; extent at each site not stated)
As to B1, the fold of multimer forms against non-phosphorylated RAD51 was found to be 1.6 fold.
